In test [1] the target is T1, human CCR8 (human, UniProt P51685 1-355).
T1 construct: whole, on cells; construct used for the overexpressing cell lines is not described; also called hCCR8
As to the kind of experiment: FACS, CHO-K1-hCCR8 cells. Summed up:
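Readout: FACS signal of cell-bound antibody. Staining used a 200 nM top concentration with 5-fold dilutions in 2% FBS buffer, 1 h at 4 °C, then secondary antibody for 40 min.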

For test [2], the target named is T2, cynomolgus monkey CCR8 (cynomolgus monkey, UniProt G7NYJ2 1-355).
T2 construct: whole, on cells; also called CynoCCR8
T2 sequence (G7NYJ2 entry or part of it): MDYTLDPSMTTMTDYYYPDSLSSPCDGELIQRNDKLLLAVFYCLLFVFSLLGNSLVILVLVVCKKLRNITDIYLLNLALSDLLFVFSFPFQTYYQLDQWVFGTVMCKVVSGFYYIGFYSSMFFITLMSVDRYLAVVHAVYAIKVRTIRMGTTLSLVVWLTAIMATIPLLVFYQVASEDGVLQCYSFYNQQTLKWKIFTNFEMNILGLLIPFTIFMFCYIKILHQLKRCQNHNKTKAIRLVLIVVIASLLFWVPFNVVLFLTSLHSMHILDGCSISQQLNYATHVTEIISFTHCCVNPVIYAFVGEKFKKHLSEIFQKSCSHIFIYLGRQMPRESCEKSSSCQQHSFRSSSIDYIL
As to the kind of experiment: FACS, CHO-K1-CynoCCR8 cells. Summed up: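 Anti-CCR8 antibodies titrated in 5-fold steps from 200 nM onto 1E6 cells/mL CHO-K1-CynoCCR8 in DPBS/2% FBS, 1 h at 4 °C. Bound antibody detected with 1:1000 secondary antibody, 40 min at 4 °C, then flow cytometry.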
On the technique in general: Flow cytometry measures light scatter and fluorescence of single cells or particles in a stream.

For test [3], the target named is T3, CD40LG (UniProt P29965 1-261).
T3 construct: whole, on cells; also called HEK293-CD40LG
T3 sequence (looked up): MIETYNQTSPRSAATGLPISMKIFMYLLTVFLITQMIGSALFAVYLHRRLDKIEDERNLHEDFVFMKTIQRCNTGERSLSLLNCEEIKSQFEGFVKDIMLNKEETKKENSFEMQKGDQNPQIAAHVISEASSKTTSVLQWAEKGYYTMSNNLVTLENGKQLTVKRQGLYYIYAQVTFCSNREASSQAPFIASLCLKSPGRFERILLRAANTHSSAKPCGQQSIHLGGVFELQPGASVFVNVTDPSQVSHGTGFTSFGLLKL
Put plainly: flow cytometry, HEK293-CD40LG cells.

In test [4] the target is T1, human CCR8. As to the kind of experiment: KinExA, cell line overexpressing human CCR8; human CCR8 cell line. Here is the method: To 200 mg of PMMA hard beads was added 30 μg of Goat Anti-Human IgG Fc antibody, and the mixture was supplemented with a coating solution to 1.0 mL, with a buffer composition of 1×PBS, pH7.4, to ensure that the beads were completely suspended in the solution. After being spun at room temperature for 2 h, the beads were either allowed to settle naturally or centrifuged briefly at low speed, and the supernatant was removed. 1 mL of blocking buffer (1×PBS, pH7.4, containing 10 mg/mL BSA) was added to ensure that the beads were resuspended in the blocking solution, and the beads were spun at room temperature for 1 h. An appropriate concentration of PR005565, PR006155 or PR006166 was used as the 100% signal value, and PBS blank was used as the background value. The net signal values were detected using 0.5 μg/mL Alexa Fluor® 647 Goat Anti-Human IgG. The cell line overexpressing human or monkey CCR8 was collected by centrifugation at 1500 g for 5 min, washed 2 times with 2 PBS and centrifuged at 350 g. The cells were collected in a 1.5 mL centrifuge tube. 10 mL of 0.2 nM PR005565, PR006155 or PR006166 solution was prepared. The total cells were supplemented with 0.2 nM PR005565, PR006155 or PR006166 solution to 0.82 mL, and diluted in a 2-fold gradient with 0.2 nM PR005565, PR006155 or PR006166 as a buffer. […]
In general terms: In KinExA the mixture passes briefly over coated beads that capture the unbound partner.

The EC50 is the midpoint of the concentration-response curve. By Kd is commonly meant the concentration at which binding is half-saturated.

T1 sequence (P51685 whole entry): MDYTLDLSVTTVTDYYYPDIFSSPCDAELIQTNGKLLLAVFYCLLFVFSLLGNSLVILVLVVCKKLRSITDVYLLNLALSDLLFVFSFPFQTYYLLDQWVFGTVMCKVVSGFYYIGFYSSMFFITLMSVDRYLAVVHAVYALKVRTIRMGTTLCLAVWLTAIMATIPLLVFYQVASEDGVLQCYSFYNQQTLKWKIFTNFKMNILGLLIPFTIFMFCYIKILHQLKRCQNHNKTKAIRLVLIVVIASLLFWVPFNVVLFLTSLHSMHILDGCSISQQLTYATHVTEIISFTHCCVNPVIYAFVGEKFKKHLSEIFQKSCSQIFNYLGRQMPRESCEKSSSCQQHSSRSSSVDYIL

B1: PR005565 (antibody, human IgG1, kappa)
heavy: not shown
light: DIVMTQSPLSLPVTLGQPASISCRSSKSLLHSNAKIYLYWFQQRPGQSPRLLIYRMSNLASGVPDRFSGSGSGTDFTLKISRVEAEDVGVYYCMQHLEYPLTFGQGTKLEIKRTVAAPSVFIFPPSDEQLKSGTASVVCLLNNFYPREAKVQWKVDNALQSGNSQESVTEQDSKDSTYSLSSTLTLSKADYEKHKVYACEVTHQGLSSPVTKSFNRGEC
notes: IgG1 constant region; same VH/VL as PR004666
With B1, the results for the EC50 in test [1] and in test [2] were 0.42 nM and 0.76 nM, respectively. In addition, in test [3], the MFI stood at 241. This molecule showed a Kd in test [4] of 0.13 nM.
